# Test results from publication PMC5435990 (Nucleic Acids Research, 2017).
# Substitutions are numbered along the chain they refer to. Names and notes keep the numbering of the source. Values joined by “and” are separate entries in the source; they are usually repeats but may differ in a detail not shown here. Equal values may be shown once.
# B1: GFP-Mrr D203A catalytic mutant (enzyme)
# chain: MTVPTYDKFIEPVLRYLATKPEGAAARDVHEAAADALGLDDSQRAKVITSGQLVYKNRAGWAHDRLKRAGLSQSLSRGKWCLTPAGFDWVASHPQPMTEQETNHLAFAFVNVKLKSRPDAVDLDPKADSPDHEELAKSSPDDRLDQALKELRDAVADEVLENLLQVSPSRFEVIVLDVLHRLGYGGHRDDLQRVGGTGDGGIAGVISLDKLGLEKVYVQAKRWQNTVGRPELQAFYGALAGQKAKRGVFITTSGFTSQARDFAQSVEGMVLVDGERLVHLMIENEVGVSSRLLKVPKLDMDYFE
# B2: GFP-Mrr fusion protein (Mrr, Methylated adenine Recognition and Restriction, fused with GFPmut2) (enzyme)
# chain: B1 chain with A203D
# B3: Strep-tagged GFP-Mrr (enzyme, Escherichia coli K-12, UniProt P24202 1-304, looked up)
# chain: B1 chain with A203D
# What was measured:
# [1] = molecular target: the molecule itself; experiment: scanning Number and Brightness
# [2] = molecular target: the molecule itself; experiment: scanning Number and Brightness; remark: listed apart in the source
# SEC = molecular target: the molecule itself; experiment: SEC
protein,measurement,setting,value
B1,stoichiometry N,[1],2
B2,stoichiometry N,[2],2
B3,stoichiometry N,SEC,4 and 2
